Data on 23 molecules can be found in PMC6555819, “Comprehensive study of nuclear receptor DNA binding provides a revised framework for understanding receptor specificity”.

B1: NRC3_wobSeed97_DR4_T28C_o1 (dsDNA)
DNA 1: GCCAAACTAGGTCACGAAAGGTCAAAGCCGAATGACGCGATTGACAGCGTAGAATGAAGG
DNA 2: CCTTCATTCTACGCTGTCAATCGCGTCATTCGGCTTTGACCTTTCGTGACCTAGTTTGGC
B2: NRC3_wobSeed97_DR4_T22G_o1 (dsDNA)
DNA 1: GCCAAACTAGGTCACGAAAGGGCAAAGTCGAATGACGCGATTGACAGCGTAGAATGAAGG
DNA 2: CCTTCATTCTACGCTGTCAATCGCGTCATTCGACTTTGCCCTTTCGTGACCTAGTTTGGC
B3: NRC3_wobSeed34_DR1_A15C_o1 (dsDNA)
DNA 1: GCATCGAAAGGTCGCAGGTGAGTATACCCACCCGAAGCGATTGACAGCGTAGAATGAAGG
DNA 2: CCTTCATTCTACGCTGTCAATCGCTTCGGGTGGGTATACTCACCTGCGACCTTTCGATGC
B4: NRC3_wobSeed34_DR1_G6T_o1 (dsDNA)
DNA 1: GCATCTAAAGGTCGAAGGTGAGTATACCCACCCGAAGCGATTGACAGCGTAGAATGAAGG
DNA 2: CCTTCATTCTACGCTGTCAATCGCTTCGGGTGGGTATACTCACCTTCGACCTTTAGATGC
B5: NRC3_wobSeed44_DR1_T13C_o1 (dsDNA)
DNA 1: GCTGAATGAGGTCAAAGATCAGGGAACGTGGCGTCGGCGATTGACAGCGTAGAATGAAGG
DNA 2: CCTTCATTCTACGCTGTCAATCGCCGACGCCACGTTCCCTGATCTTTGACCTCATTCAGC
B6: NRC3_wobSeed5_DR0_A20G_o1 (dsDNA)
DNA 1: GCCCTTACGGGTCAAGGTTGTAGCACGGGTGGTACGGCGATTGACAGCGTAGAATGAAGG
DNA 2: CCTTCATTCTACGCTGTCAATCGCCGTACCACCCGTGCTACAACCTTGACCCGTAAGGGC
B7: NRC3_wobSeed88_DR3_C7A_o1 (dsDNA)
DNA 1: GCTAGCATAGGTCATGCGGGCCAGTATAGTGTCGGCGCGATTGACAGCGTAGAATGAAGG
DNA 2: CCTTCATTCTACGCTGTCAATCGCGCCGACACTATACTGGCCCGCATGACCTATGCTAGC
B8: NRC3_wobSeed73_DR3_G26C_o1 (dsDNA)
DNA 1: GCCAAACTAGGTCACAGAGGTCAAACTCCGTGCGTAGCGATTGACAGCGTAGAATGAAGG
DNA 2: CCTTCATTCTACGCTGTCAATCGCTACGCACGGAGTTTGACCTCTGTGACCTAGTTTGGC
B9: NRC3_wobSeed73_DR3_C22T_o1 (dsDNA)
DNA 1: GCCAAACTAGGTCACAGAGGTTAAAGTCCGTGCGTAGCGATTGACAGCGTAGAATGAAGG
DNA 2: CCTTCATTCTACGCTGTCAATCGCTACGCACGGACTTTAACCTCTGTGACCTAGTTTGGC
B10: NRC3_wobSeed74_DR3_C15T_o1 (dsDNA)
DNA 1: GCTCTAGTTGGTCATGGAGGTCACACACGACGGGTAGCGATTGACAGCGTAGAATGAAGG
DNA 2: CCTTCATTCTACGCTGTCAATCGCTACCCGTCGTGTGTGACCTCCATGACCAACTAGAGC
B11: NRC3_wobSeed21_DR0_G17C_o1 (dsDNA)
DNA 1: GCCGTCAAAGTTCAAGCTAACGTAACAGAAAGCAGCGCGATTGACAGCGTAGAATGAAGG
DNA 2: CCTTCATTCTACGCTGTCAATCGCGCTGCTTTCTGTTACGTTAGCTTGAACTTTGACGGC
B12: NRC3_wobSeed2_DR0_C4T_o1 (dsDNA)
DNA 1: GCCTTAGTTGGTCAAGGTCACACACGCTATAGGTACGCGATTGACAGCGTAGAATGAAGG
DNA 2: CCTTCATTCTACGCTGTCAATCGCGTACCTATAGCGTGTGTGACCTTGACCAACTAAGGC
B13: NRC3_wobSeed46_DR1_G13T_o1 (dsDNA)
DNA 1: GCTTACCAAGGTTAAAGGTCGTTGATGCACGCCTTGGCGATTGACAGCGTAGAATGAAGG
DNA 2: CCTTCATTCTACGCTGTCAATCGCCAAGGCGTGCATCAACGACCTTTAACCTTGGTAAGC
B14: NRC3_wobSeed3_DR0_G21C_o1 (dsDNA)
DNA 1: GCGCTCGGAGGACAAGGTCACAGCTTTGTCCGTAGAGCGATTGACAGCGTAGAATGAAGG
DNA 2: CCTTCATTCTACGCTGTCAATCGCTCTACGGACAAAGCTGTGACCTTGTCCTCCGAGCGC
B15: NRC3_wobSeed26_DR1_T8C_o1 (dsDNA)
DNA 1: GCTCTAGCTGGTCAAAGGTCACACACTCGAAATGCGGCGATTGACAGCGTAGAATGAAGG
DNA 2: CCTTCATTCTACGCTGTCAATCGCCGCATTTCGAGTGTGTGACCTTTGACCAGCTAGAGC
B16: NRC3_wobSeed93_DR3_T26A_o1 (dsDNA)
DNA 1: GCAGTCAAAGTTCATCTAGGTAACGAAAGATATGCTGCGATTGACAGCGTAGAATGAAGG
DNA 2: CCTTCATTCTACGCTGTCAATCGCAGCATATCTTTCGTTACCTAGATGAACTTTGACTGC
B17: NRC3_wobSeed100_DR4_C12G_o1 (dsDNA)
DNA 1: GCCCTACTGGGGCACGAAAGGTCATTGATTCAGTGAGCGATTGACAGCGTAGAATGAAGG
DNA 2: CCTTCATTCTACGCTGTCAATCGCTCACTGAATCAATGACCTTTCGTGCCCCAGTAGGGC
B18: NRC3_wobSeed100_DR4_C13G_o1 (dsDNA)
DNA 1: GCCCTACTGGGCGACGAAAGGTCATTGATTCAGTGAGCGATTGACAGCGTAGAATGAAGG
DNA 2: CCTTCATTCTACGCTGTCAATCGCTCACTGAATCAATGACCTTTCGTCGCCCAGTAGGGC
B19: NRC3_wobSeed109_DR4_G25T_o1 (dsDNA)
DNA 1: GCCGTCCAAGGTCATAGGAGGTCATTGAAGACAGATGCGATTGACAGCGTAGAATGAAGG
DNA 2: CCTTCATTCTACGCTGTCAATCGCATCTGTCTTCAATGACCTCCTATGACCTTGGACGGC
B20: NRC3_wobSeed133_DR5_T23C_o1 (dsDNA)
DNA 1: GCCGTCCAAGGTCAATGCTAGGCCAGTGAAAGCATTGCGATTGACAGCGTAGAATGAAGG
DNA 2: CCTTCATTCTACGCTGTCAATCGCAATGCTTTCACTGGCCTAGCATTGACCTTGGACGGC
B21: NRC3_wobSeed18_DR0_G16T_o1 (dsDNA)
DNA 1: GCGATACAGGGTCAATGCCAGAGTACGCGTATTGATGCGATTGACAGCGTAGAATGAAGG
DNA 2: CCTTCATTCTACGCTGTCAATCGCATCAATACGCGTACTCTGGCATTGACCCTGTATCGC
B22: NRC3_wobSeed122_DR5_G10T_o1 (dsDNA)
DNA 1: GCGCTAGTTTGTCAGTAAAAGGTCACACACCGGTCGGCGATTGACAGCGTAGAATGAAGG
DNA 2: CCTTCATTCTACGCTGTCAATCGCCGACCGGTGTGTGACCTTTTACTGACAAACTAGCGC
B23: NRC3_wobSeed122_DR5_C4A_o1 (dsDNA)
DNA 1: GCGATAGTTGGTCAGTAAAAGGTCACACACCGGTCGGCGATTGACAGCGTAGAATGAAGG
DNA 2: CCTTCATTCTACGCTGTCAATCGCCGACCGGTGTGTGACCTTTTACTGACCAACTATCGC

Chain of RXRa (P19793 whole entry): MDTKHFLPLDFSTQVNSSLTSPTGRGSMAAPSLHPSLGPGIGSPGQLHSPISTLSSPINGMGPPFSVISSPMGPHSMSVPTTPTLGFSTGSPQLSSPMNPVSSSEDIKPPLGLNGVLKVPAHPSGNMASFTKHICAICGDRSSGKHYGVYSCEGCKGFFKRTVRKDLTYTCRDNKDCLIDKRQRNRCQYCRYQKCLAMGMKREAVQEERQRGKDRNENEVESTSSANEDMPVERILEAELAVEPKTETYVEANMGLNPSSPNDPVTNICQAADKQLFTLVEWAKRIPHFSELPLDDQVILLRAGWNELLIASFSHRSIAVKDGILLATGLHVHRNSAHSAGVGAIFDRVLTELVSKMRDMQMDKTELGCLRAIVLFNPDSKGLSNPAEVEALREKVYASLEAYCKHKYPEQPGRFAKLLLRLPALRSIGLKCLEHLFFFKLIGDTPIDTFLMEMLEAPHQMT

This data set concerns the target RXRa (Homo sapiens, UniProt P19793). The data set can be described thus: no ligand; PBM; 180 nM; PBS pH 7.4, 2% milk, 0.02% Triton X-100, 1 mM DTT, BSA, 0.4 mg/ml salmon testes DNA. Conditions: tags: His cleaved; chain copies: 2; label: surface-attached array probe.
Regarding B1, the binding signal was 8.92 PBM z-score against 500 random probes.
For the molecule B2, the binding signal is 4.76 PBM z-score against 500 random probes.
The result for B3 reads 5.33 PBM z-score against 500 random probes; that for B4, 4.9 PBM z-score against 500 random probes; that for B5, 7.98 PBM z-score against 500 random probes.
For the molecule B6, the binding signal is 4.67 PBM z-score against 500 random probes.
For B7, the binding signal was 4.81 PBM z-score against 500 random probes.
Take B8: the binding signal is 8.89 PBM z-score against 500 random probes.
B9: the binding signal is 5.19 PBM z-score against 500 random probes.
The result for B10 reads 5.28 PBM z-score against 500 random probes; that for B11, 4.62 PBM z-score against 500 random probes.
Regarding B12, the binding signal was 5.06 PBM z-score against 500 random probes.
On to B13, for which the binding signal was 7.99 PBM z-score against 500 random probes.
B14: the binding signal is 4.86 PBM z-score against 500 random probes.
With B15, the binding signal is 8.94 PBM z-score against 500 random probes.
With B16, the binding signal was 5.16 PBM z-score against 500 random probes.
Regarding B17, the binding signal was 5.1 PBM z-score against 500 random probes.
B18: the binding signal was 4.57 PBM z-score against 500 random probes.
The figure for B19 is 7.89 PBM z-score against 500 random probes.
As for B20, the binding signal was 4.95 PBM z-score against 500 random probes.
The result for B21 reads 4.72 PBM z-score against 500 random probes; that for B22, 5.24 PBM z-score against 500 random probes.
Regarding B23, the binding signal is 4.99 PBM z-score against 500 random probes.
